Measured values taken from patent publication US20200247894A1 (Regeneron, published 2020).
Where a chain is given by its changes, count along the chain named.

How the values were obtained:
[1] = target: T1, Mouse IL2Rγ extracellular domain expressed with a C-terminal myc-myc-hexahistidine tag (mouse); assay: SPR Biacore 4000, anti-hFc-captured mAb, 37 C
T1 construct: whole entry is the tagged construct; also called mIL-2Rg-MMH
T1 chain: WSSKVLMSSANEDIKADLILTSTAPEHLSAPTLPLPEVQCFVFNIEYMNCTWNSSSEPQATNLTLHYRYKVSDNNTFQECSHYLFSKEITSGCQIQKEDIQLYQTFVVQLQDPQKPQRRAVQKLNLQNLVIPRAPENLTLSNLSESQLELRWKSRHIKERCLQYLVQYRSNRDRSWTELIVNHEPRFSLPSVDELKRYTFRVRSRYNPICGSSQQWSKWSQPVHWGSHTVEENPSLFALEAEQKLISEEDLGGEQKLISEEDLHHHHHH
Experimental: (§1) Equilibrium dissociation constants (KD values) for IL-2Rγ binding to purified anti-IL2Rγ monoclonal antibodies were determined using a Biacore 4000 instrument equipped with a real-time surface plasmon resonance biosensor. All binding studies were performed in 10 mM HEPES, 150 mM NaCl, 3 mM EDTA, and 0.05% v/v Surfactant Tween-20, pH 7.4 (HBS-ET) running buffer at 25° C. and 37° C. The Biacore sensor surface was first derivatized by amine coupling with a monoclonal mouse anti-human Fc antibody (GE, # BR-1008-39) to capture anti-IL2Rγ monoclonal antibodies.
(§2) The dissociation of monoclonal antibody bound IL2Rγ reagents were monitored for 8-10 minutes in HBS-ET running buffer. Kinetic association (kₐ) and dissociation (kd) rate constants were determined by fitting the real-time sensorgrams to a 1:1 binding model using Scrubber 2.0c curve fitting software. Binding dissociation equilibrium constants (KD) and dissociative half-lives (t_{1/2}) were calculated from the kinetic rate constants as: […]

[2] = target: T2, Rat IL2Rγ extracellular domain expressed with a C-terminal myc-myc-hexahistidine tag (rat); assay: SPR Biacore 4000, anti-hFc-captured mAb, 37 C
T2 construct: whole entry is the tagged construct; also called rIL-2Rg-MMH; rat IL-2Rg-MMH
T2 chain: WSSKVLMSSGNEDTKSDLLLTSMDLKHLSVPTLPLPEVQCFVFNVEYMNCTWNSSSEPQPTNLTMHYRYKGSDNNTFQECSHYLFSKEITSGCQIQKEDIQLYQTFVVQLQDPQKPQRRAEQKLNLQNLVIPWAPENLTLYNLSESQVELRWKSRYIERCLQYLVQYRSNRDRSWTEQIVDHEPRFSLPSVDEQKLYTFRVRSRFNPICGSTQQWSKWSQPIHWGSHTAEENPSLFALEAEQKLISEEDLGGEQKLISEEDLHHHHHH
Experimental: as §1, §2

[3] = target: T1, Mouse IL2Rγ extracellular domain …; assay: SPR Biacore 4000, anti-hFc-captured mAb, 25 C
Experimental: as §1, §2

[4] = target: T2, Rat IL2Rγ extracellular domain …; assay: SPR Biacore 4000, anti-hFc-captured mAb, 25 C
Experimental: as §1, §2

[5] = target: T3, Macaca fascicularis IL2Rγ extracellular domain expressed with a C-terminal myc-myc-hexahistidine tag (Macaca fascicularis); assay: SPR Biacore 4000, anti-hFc-captured mAb, 37 C
T3 construct: whole entry is the tagged construct; also called mfIL-2Rg-MMH
T3 chain: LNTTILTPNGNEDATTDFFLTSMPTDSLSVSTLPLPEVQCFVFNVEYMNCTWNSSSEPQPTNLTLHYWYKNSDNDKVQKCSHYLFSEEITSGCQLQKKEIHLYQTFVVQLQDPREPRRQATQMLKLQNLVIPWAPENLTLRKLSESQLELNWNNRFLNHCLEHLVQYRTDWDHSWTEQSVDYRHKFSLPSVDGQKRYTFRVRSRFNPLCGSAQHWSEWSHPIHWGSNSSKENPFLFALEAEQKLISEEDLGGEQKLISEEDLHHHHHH
Experimental: as §1, §2

[6] = target: T4, Human IL2Rγ extracellular domain expressed with a C-terminal mouse IgG2a Fc tag (human); assay: SPR Biacore 4000, anti-hFc-captured mAb, 37 C
T4 construct: whole entry is the Fc-fused construct; also called hIL-2Rg-mFc
T4 chain: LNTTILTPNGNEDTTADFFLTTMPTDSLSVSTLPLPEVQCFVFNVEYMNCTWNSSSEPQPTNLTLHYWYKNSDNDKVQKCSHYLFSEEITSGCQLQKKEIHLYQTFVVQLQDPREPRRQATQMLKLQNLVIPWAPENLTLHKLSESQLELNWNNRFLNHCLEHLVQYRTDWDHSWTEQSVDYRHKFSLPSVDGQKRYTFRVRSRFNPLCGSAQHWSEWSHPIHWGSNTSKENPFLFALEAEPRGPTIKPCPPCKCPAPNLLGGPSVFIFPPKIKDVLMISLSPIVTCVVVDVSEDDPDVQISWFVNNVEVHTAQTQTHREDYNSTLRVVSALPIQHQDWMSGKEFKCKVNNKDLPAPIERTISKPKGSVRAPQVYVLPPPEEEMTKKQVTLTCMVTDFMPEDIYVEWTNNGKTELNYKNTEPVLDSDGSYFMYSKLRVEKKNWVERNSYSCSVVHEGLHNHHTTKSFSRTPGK
Experimental: as §1, §2

[7] = target: T4, Human IL2Rγ extracellular domain …; assay: SPR Biacore 4000, anti-hFc-captured mAb, 25 C
Experimental: as §1, §2

B1: H4H12857P (antibody, human IgG4 S228P, kappa, V domains shown)
VH: EVQLVESGGGVVRPGGSLRLSCAASGFTFDDFDMSWVRQGPGKGLEWVSGINWHGSSTGYADSVKGRFTISRDNAKNSLYLQMSSLRAEDTALYHCVRGGTIVGATTPLDYWGQGTLVTVSS
VL: DIQMTQSPSSLSASVGDRVTMTCRASRTISSYLSWYQQKSGKVPNLLIFGASSLQSGVPSRFSASGSGTDFTLIISSLQPEDFATYYCQQSYSSPLTFGGGTKVEIKR
notes: fully human anti-IL2Rgamma mAb, human IgG4 Fc; also called REGN9432
- 100 nM Ag Bound [1]: 1 RU
- 100 nM Ag Bound [2]: 1 RU
- 100 nM Ag Bound [3]: 5 RU
- binding result [3]: no binding (tested: 100 nM)
- 100 nM Ag Bound [4]: 1 RU
- binding result [4]: no binding (tested: 100 nM)

B2: H4H12927P2 (antibody, human IgG4 S228P, kappa, V domains shown)
VH: EVQLVESGGGVVRPGGSLRLSCATSGFTFDDYGMSWVRQVPGKGLEWVSSVNRNGGTTDYADSVKGRFTISRDNAKRSLFLQMNSLRAEDTALYHCATGELFFDYWGQGTLVTVSS
VL: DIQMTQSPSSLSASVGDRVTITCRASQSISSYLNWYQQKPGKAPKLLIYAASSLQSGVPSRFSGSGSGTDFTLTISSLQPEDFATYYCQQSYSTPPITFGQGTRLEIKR
notes: fully human anti-IL2Rgamma mAb, human IgG4 Fc
- 100 nM Ag Bound [1]: 1 RU
- 100 nM Ag Bound [2]: 1 RU
- 100 nM Ag Bound [3]: 1 RU
- binding result [3]: no binding (tested: 100 nM)
- 100 nM Ag Bound [4]: 2 RU
- binding result [4]: no binding (tested: 100 nM)

B3: H4H12859P (antibody, human IgG4 S228P, kappa, V domains shown)
VH: QVQLVQSGAEVKKPGASVRVSCKASGYTFTDYDIHWVRQAPGHGLEWMGWINPNSGGTNYAQKFQGRVTMTRDTSISTVYMDLSRLRSDDTAVYYCARADYSSSYYYYGMDVWGQGTTVTVSS
VL: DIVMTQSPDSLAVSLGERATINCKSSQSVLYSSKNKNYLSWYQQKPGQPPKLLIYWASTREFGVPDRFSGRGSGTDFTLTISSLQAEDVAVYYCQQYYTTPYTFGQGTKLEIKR
notes: as for B2
- 100 nM Ag Bound [5]: 10 RU
- Kd [5]: 320 nM
- koff [5]: 0.0201 s⁻¹
- kon [5]: 62800 M⁻¹ s⁻¹
- t1/2 [5]: 0.6 min
- 100 nM Ag Bound [1]: 0 RU
- 100 nM Ag Bound [2]: 1 RU
- 100 nM Ag Bound [3]: 2 RU
- binding result [3]: no binding (tested: 100 nM)
- 100 nM Ag Bound [4]: 2 RU
- binding result [4]: no binding (tested: 100 nM)

B4: H4H12926P2 (antibody, human IgG4 S228P, kappa, V domains shown)
VH: QVQLQQSGPGLVKPSQTLSLTCAISGDSVSSNIAAWNWIRLSPSRGLEWLGRTFFRSTWFYDYSLSVKGRITINPDTSKNQFSLHLNSVTPEDAAVYYCARTGRRWSLDYWGQGTLVTVSS
VL: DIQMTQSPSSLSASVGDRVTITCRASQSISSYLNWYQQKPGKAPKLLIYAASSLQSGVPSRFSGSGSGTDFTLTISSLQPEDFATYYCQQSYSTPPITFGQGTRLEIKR
notes: as for B2
- 100 nM Ag Bound [1]: 0 RU
- 50 nM Ag Bound [6]: 11 RU
- Kd [6]: 16 nM
- koff [6]: 0.00326 s⁻¹
- kon [6]: 204000 M⁻¹ s⁻¹
- t1/2 [6]: 4 min
- 100 nM Ag Bound [2]: 2 RU
- 100 nM Ag Bound [3]: 0 RU
- binding result [3]: no binding (tested: 100 nM)
- 50 nM Ag Bound [7]: 46 RU
- Kd [7]: 5.21 nM
- koff [7]: 0.000962 s⁻¹
- kon [7]: 185000 M⁻¹ s⁻¹
- t1/2 [7]: 12 min
- 100 nM Ag Bound [4]: 2 RU
- binding result [4]: no binding (tested: 100 nM)

B5: H4H12899P (antibody, human IgG4 S228P, kappa, V domains shown)
VH: QVQLVESGGDLVKPGGSLRLSCATSGFTFSDFYMTWIRQAPGKGLEWISYISNSGSIVKYADSVKGRFTISRDNAKNSLYLQMNSLRAEDTAIYYCARFYGDRWGQGTLVTVSS
VL: DIQLTQSPSFLSASVGDRVTITCWASQGISTFLAWYQQKPGKAPKLLIYAASTLQSGVPSRFSGSGSGTDFTLTISSLQPEDFATYHCQQLNNYPWTFGQGTKVEIKR
notes: as for B2
- 100 nM Ag Bound [5]: 31 RU
- Kd [5]: 6.71 nM
- koff [5]: 0.00216 s⁻¹
- kon [5]: 322000 M⁻¹ s⁻¹
- t1/2 [5]: 5 min
- 100 nM Ag Bound [1]: 19 RU
- Kd [1]: 55.9 nM
- koff [1]: 0.0108 s⁻¹
- kon [1]: 193000 M⁻¹ s⁻¹
- t1/2 [1]: 1.1 min
- 100 nM Ag Bound [2]: 16 RU
- Kd [2]: 51.6 nM
- koff [2]: 0.00753 s⁻¹
- kon [2]: 146000 M⁻¹ s⁻¹
- t1/2 [2]: 1.5 min
- 100 nM Ag Bound [3]: 51 RU
- Kd [3]: 18.4 nM
- koff [3]: 0.00167 s⁻¹
- kon [3]: 90600 M⁻¹ s⁻¹
- t1/2 [3]: 7 min
- 100 nM Ag Bound [4]: 39 RU
- Kd [4]: 21.7 nM
- koff [4]: 0.00153 s⁻¹
- kon [4]: 70400 M⁻¹ s⁻¹
- t1/2 [4]: 8 min

B6: H4H12900P (antibody, human IgG4 S228P, kappa, V domains shown)
VH: QVQLVESGGGLVKPGGSLRLSCEASGFTFNDFYMTWIRQAPGKGLEWIAYISKSGDKMRYADSVKGRFSTSRDNAKNSLSLQMNSLRAEDTAVYYCARFYGDIWGQGTLVTVSS
VL: B5 VL with G28D, T31S, A34V, K45N, T53A, D70E, T85S, H87Y, Q89E
notes: as for B2
- 100 nM Ag Bound [5]: 38 RU
- Kd [5]: 3.18 nM
- koff [5]: 0.00154 s⁻¹
- kon [5]: 483000 M⁻¹ s⁻¹
- t1/2 [5]: 8 min
- 100 nM Ag Bound [1]: 32 RU
- Kd [1]: 6.11 nM
- koff [1]: 0.00317 s⁻¹
- kon [1]: 519000 M⁻¹ s⁻¹
- t1/2 [1]: 4 min
- 100 nM Ag Bound [2]: 27 RU
- Kd [2]: 8.7 nM
- koff [2]: 0.00363 s⁻¹
- kon [2]: 417000 M⁻¹ s⁻¹
- t1/2 [2]: 3.2 min
- 100 nM Ag Bound [3]: 76 RU
- Kd [3]: 3.76 nM
- koff [3]: 0.000467 s⁻¹
- kon [3]: 124000 M⁻¹ s⁻¹
- t1/2 [3]: 25 min
- 100 nM Ag Bound [4]: 57 RU
- Kd [4]: 6.02 nM
- koff [4]: 0.000619 s⁻¹
- kon [4]: 103000 M⁻¹ s⁻¹
- t1/2 [4]: 19 min

B7: H4H12890P (antibody, human IgG4 S228P, kappa, V domains shown)
VH: EVQLVESGGGLVQPGGSLRLSCAASGFTFNNYAMHWVRQAPGKGLEYVSSISSSGGSTYYEDSVKGRFTISRDNSKNTLYLQMGSLRAEDMAVYYCARSFYGSGTYYDTFDMWGQGTMVTVSS
VL: DIQMTQSPSSLSASIGDRVTITCRASQSISRYLNWYQQKPGKAPKLLIYAASSLQSGVPSRFSASGSGTDFTLTISSLQPEDFATYYCQQSYSTPFTFGQGTKLEIKR
notes: as for B2
- 100 nM Ag Bound [5]: 20 RU
- Kd [5]: 14 nM
- koff [5]: 0.00131 s⁻¹
- kon [5]: 93600 M⁻¹ s⁻¹
- t1/2 [5]: 9 min
- 100 nM Ag Bound [1]: 1 RU
- 100 nM Ag Bound [2]: 0 RU
- 100 nM Ag Bound [3]: 1 RU
- binding result [3]: no binding (tested: 100 nM)
- 100 nM Ag Bound [4]: 0 RU
- binding result [4]: no binding (tested: 100 nM)
